Measurements published in PMC12622518 (Advanced Science, 2025).

Assays:
[1] = molecular target: ligand-binding domain of CsiR (CsiR-LBD) (P. putida KT2440); experiment: SEC; gel filtration on Superdex 200 10/300 GL, 50 mM sodium phosphate buffer pH 7.2, 150 mM NaCl; mass standards aprotinin, ovalbumin, conalbumin, aldolase, ferritin
YnfM = molecular target: T1, YnfM (Escherichia coli, UniProt P43531); experiment: efflux in knockout versus parent E. coli, intra- and extracellular Glusor fluorescence; assay type: cell-based; details: carbon starvation, 30 °C
T1 construct: native MFS exporter in living E. coli BL21(DE3) cells; ynfM knockout comparison with Glusor read-out
T1 sequence (P43531 1-417): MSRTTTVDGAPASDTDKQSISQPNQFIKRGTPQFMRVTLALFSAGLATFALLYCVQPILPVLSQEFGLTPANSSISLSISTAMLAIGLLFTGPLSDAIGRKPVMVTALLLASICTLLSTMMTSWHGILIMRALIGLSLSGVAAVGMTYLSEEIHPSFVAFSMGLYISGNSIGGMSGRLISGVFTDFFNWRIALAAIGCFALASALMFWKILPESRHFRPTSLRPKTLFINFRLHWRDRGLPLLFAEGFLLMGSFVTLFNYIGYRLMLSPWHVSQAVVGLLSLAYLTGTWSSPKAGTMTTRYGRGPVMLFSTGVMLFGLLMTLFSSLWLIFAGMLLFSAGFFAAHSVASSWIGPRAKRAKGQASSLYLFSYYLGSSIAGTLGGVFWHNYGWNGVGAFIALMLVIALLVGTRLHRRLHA

CsiR = molecular target: T2, CsiR (Pseudomonas putida, UniProt Q88IU1); experiment: fluorescence-based thermal shift (SYPRO Orange); assay type: binding; details: 100 µM ligand; 20 mM sodium phosphate, 150 mM NaCl, pH 7.4
T2 construct: full-length, His6-tagged, purified from E. coli BL21(DE3) (pETDuet-CsiR); dimer
T2 sequence (Q88IU1 1-231): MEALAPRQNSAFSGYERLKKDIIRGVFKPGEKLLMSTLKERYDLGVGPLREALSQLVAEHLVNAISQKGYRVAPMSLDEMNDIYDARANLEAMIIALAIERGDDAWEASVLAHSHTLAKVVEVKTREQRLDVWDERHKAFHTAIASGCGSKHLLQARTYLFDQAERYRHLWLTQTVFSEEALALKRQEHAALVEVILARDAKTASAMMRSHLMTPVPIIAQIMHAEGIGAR

[2] = molecular target: the molecule itself; experiment: SEC; gel filtration on Superdex 200 10/300 GL, 50 mM sodium phosphate buffer pH 7.2, 150 mM NaCl; mass standards aprotinin, ovalbumin, conalbumin, aldolase, ferritin

## ligand-binding domain of CsiR (CsiR-LBD) (domain or fragment)
[1]
  stoichiometry N: 2

## O=C(O)CCCC(=O)O [glutarate]
YnfM
  efflux in knockout versus parent E. coli, intra- and extracellular Glusor fluore: YnfM may be the only functional glutarate exporter in E. coli BL21(DE3)
CsiR
  ΔTm: only glutarate induced a significant increase in the melting temperature (Tm) of CsiR

B1: GntR family transcriptional regulator CsiR (natural protein, P. putida KT2440, UniProt Q88IU1 1-231, looked up)
chain: T2 sequence (Q88IU1 1-231)
notes: CsiR, GntR family transcriptional regulator of the csiD-lhgO operon, Pseudomonas putida KT2440; csiR gene cloned into pETDuet-1 (pETDuet-CsiR); also called His6-tagged CsiR
[2]
  stoichiometry N: 2

B2: genetically encoded glutarate fluorescent biosensor Glusor (other)
chain: LDEMNDIYDARANLEAMIIALAIERGDDAWEASVLAHSHTLAKVVEVKTREQRLDVWDERHKAFHTAIASGCGSKHLLQARTYLFDQAERYRHLWLTQTVFSEEALALKRQEHAALVEVILARDAKTASAMMRSHLMTPVPIIAQIMHAEGIGAR
[2]
  stoichiometry N: 2
